We go through 24 molecules from patent US20240132624A1 (Ablynx, published 2024).

Broadly, the koff is a measure of how fast the partners let go of each other. A low value points to slow dissociation.

Where a chain is given by its changes, count along the chain named.

The labels stand for the following.
B1: T0263018B11 T57P (VHH, name in Kabat numbering)
VHH: EVQLVESGGGVVQPGGSLRLSCAASGFTFSSYAMYWVRQAPGKGLEWVSAISSGGGSPDYADSVKGRFTISRDNSKNTLYLQMNSLRPEDTALYYCAADTLYTSLTWYSYWGQGTLVTVSS
notes: FLAG3-His6 tagged
B2: T0263018B11 W100cA (VHH, name in Kabat numbering)
VHH: B1 VHH with P58T, W107A
notes: FLAG3-His6 tagged
B3: T0263018B11 W100cY (VHH, name in Kabat numbering)
VHH: B1 VHH with P58T, W107Y
notes: FLAG3-His6 tagged
B4: T0263018B11 T57W (VHH, name in Kabat numbering)
VHH: B1 VHH with P58W
notes: FLAG3-His6 tagged
B5: T0263018B11 T96I (VHH, name in Kabat numbering)
VHH: B1 VHH with P58T, T100I
notes: FLAG3-His6 tagged
B6: T0263018B11 T57V (VHH, name in Kabat numbering)
VHH: B1 VHH with P58V
notes: FLAG3-His6 tagged
B7: T0263018B11 W100cG (VHH, name in Kabat numbering)
VHH: B1 VHH with P58T, W107G
notes: FLAG3-His6 tagged
B8: T0263018B11 T96A (VHH, name in Kabat numbering)
VHH: B1 VHH with P58T, T100A
notes: FLAG3-His6 tagged
B9: T0263018B11 T96S (VHH, name in Kabat numbering)
VHH: B1 VHH with P58T, T100S
notes: FLAG3-His6 tagged
B10: T0263018B11 W100cD (VHH, name in Kabat numbering)
VHH: B1 VHH with P58T, W107D
notes: FLAG3-His6 tagged
B11: T0263018B11 T96V (VHH, name in Kabat numbering)
VHH: B1 VHH with P58T, T100V
notes: FLAG3-His6 tagged
B12: T0263018B11 T100bL (VHH, name in Kabat numbering)
VHH: B1 VHH with P58T, T106L
notes: FLAG3-His6 tagged
B13: T0263018B11 T100bE (VHH, name in Kabat numbering)
VHH: B1 VHH with P58T, T106E
notes: FLAG3-His6 tagged
B14: T0263018B11 T96Y (VHH, name in Kabat numbering)
VHH: B1 VHH with P58T, T100Y
notes: FLAG3-His6 tagged
B15: T0263018B11 W100cL (VHH, name in Kabat numbering)
VHH: B1 VHH with P58T, W107L
notes: FLAG3-His6 tagged
B16: T0263018B11 W100cV (VHH, name in Kabat numbering)
VHH: B1 VHH with P58T, W107V
notes: FLAG3-His6 tagged
B17: T0263018B11 W100cF (VHH, name in Kabat numbering)
VHH: B1 VHH with P58T, W107F
notes: FLAG3-His6 tagged
B18: T0263018B11 T96F (VHH, name in Kabat numbering)
VHH: B1 VHH with P58T, T100F
notes: FLAG3-His6 tagged
B19: T0263018B11 Y32L (VHH, name in Kabat numbering)
VHH: B1 VHH with Y32L, P58T
notes: FLAG3-His6 tagged
B20: T0263018B11 T96Q (VHH, name in Kabat numbering)
VHH: B1 VHH with P58T, T100Q
notes: FLAG3-His6 tagged
B21: T0263018B11 W100cQ (VHH, name in Kabat numbering)
VHH: B1 VHH with P58T, W107Q
notes: FLAG3-His6 tagged
B22: T0263018B11 T57S (VHH, name in Kabat numbering)
VHH: B1 VHH with P58S
notes: FLAG3-His6 tagged
B23: T0263018B11 T96M (VHH, name in Kabat numbering)
VHH: B1 VHH with P58T, T100M
notes: FLAG3-His6 tagged
B24: T0263018B11 Y32F (VHH, name in Kabat numbering)
VHH: B1 VHH with Y32F, P58T
notes: FLAG3-His6 tagged

T2 sequence (Q8SPV9 24-297 limits assumed, chain 1 of 2): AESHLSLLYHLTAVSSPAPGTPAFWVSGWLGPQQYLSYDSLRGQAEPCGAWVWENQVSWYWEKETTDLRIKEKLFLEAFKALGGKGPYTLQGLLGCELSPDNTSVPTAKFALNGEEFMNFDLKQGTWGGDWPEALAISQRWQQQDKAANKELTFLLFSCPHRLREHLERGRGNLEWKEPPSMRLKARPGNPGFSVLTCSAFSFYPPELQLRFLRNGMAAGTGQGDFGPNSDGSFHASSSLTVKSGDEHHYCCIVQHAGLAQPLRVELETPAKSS
T2 sequence (Q8SPW0 21-119 limits assumed, chain 2 of 2): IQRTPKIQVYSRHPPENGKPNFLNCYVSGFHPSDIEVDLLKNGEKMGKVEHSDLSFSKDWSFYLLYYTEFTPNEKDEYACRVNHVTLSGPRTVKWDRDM

For the first assay, the target named is T1, human FcRn/b2M (human, UniProt P61769 21-119, biotinylated).
T1 construct: bought recombinant biotinylated protein (ACRO FCM-H82W4 or Immunitrack ITF01); also called hFcRn; hFcRn/hb2M
T1 sequence (chain, as listed by the source limits assumed, chain 1 of 2): as the sequence (Q8SPV9 24-297 limits assumed, chain 1 of 2) above, with D39N, Q44E, S99G, G189S, N190S, M217L, T269S counted along it
T1 sequence (P61769 21-119 limits assumed, chain 2 of 2): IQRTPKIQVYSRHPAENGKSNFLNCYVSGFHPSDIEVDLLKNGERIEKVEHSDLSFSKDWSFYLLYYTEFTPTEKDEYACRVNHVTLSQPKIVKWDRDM
Put plainly: SPR pH 6.0.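 Further: surface plasmon resonance kinetics at 25 °C, diluted periplasmic extracts injected over immobilized ligand surfaces, 120 s association then 600–3600 s dissociation, running buffer containing 150 mM NaCl.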
Protocol: (§1) All kinetic measurements have been performed on ProteOn XPR36 (BioRad Laboratories, Inc.), MASS-2 (Sierra sensors, Gmbh) or SPR-32 (Bruker Corporation). […] The phytip purified periplasmic extracts were diluted 1:10 in running buffer (CPA+150 mM NaCl+0.005% Tw20 at pH 5.5, pH 6.0 or pH 7.4) and injected over the ligand surfaces (association: 120 s at 45 μL/min; dissociation: 600s-3600 s at 45 μL/min). Experiments were carried out at 25° C.
The molecule B1 displayed a koff of 0.0015 s⁻¹.
The same measure, in the same setting: the figure for B2 is 0.01 s⁻¹; for B3 it is 0.0021 s⁻¹.
Regarding B4, the koff was determined as 0.0009 s⁻¹.
On the same count and under the same terms, the figure for B5 is 0.00069 s⁻¹; for B6 it is 0.00077 s⁻¹; for B7 it is 0.0092 s⁻¹.
On the same count and under the same terms, the figure for B8 is 0.0039 s⁻¹; for B9 it is 0.0016 s⁻¹; for B10 it is 0.0073 s⁻¹.
The same measure, in the same setting: for B11 the value was 0.00047 s⁻¹.
As to B12, the koff was 0.0037 s⁻¹.
Still for that read-out and setting: the figure for B13 is 0.00071 s⁻¹.
On the same count and under the same terms, for B14 the value was 0.00054 s⁻¹.
The same measure, in the same setting: for B15 the value was 0.0064 s⁻¹; for B16, 0.0082 s⁻¹.
Molecule B17 gave a koff of 0.0036 s⁻¹.
The same measure, in the same setting: the figure for B18 is 0.0031 s⁻¹; for B19 it is 0.013 s⁻¹.
Still for that read-out and setting: the figure for B20 is 0.0026 s⁻¹; for B21 it is 0.009 s⁻¹.
Turning to B22, the koff was determined as 0.0011 s⁻¹.
Still for that read-out and setting: the figure for B23 is 0.0016 s⁻¹; for B24 it is 0.00066 s⁻¹.

A further assay has as its target T2, cyno FcRn/b2M (cyno, UniProt Q8SPV9 24-297; Q8SPW0 21-119, biotinylated).
T2 construct: bought recombinant biotinylated protein (Immunitrack ITF05 or ACRO FCM-C82W5); also called cFcRn; cFcRn/cb2M
Put plainly: SPR pH 6.0.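 Further: surface plasmon resonance kinetics at 25 °C, diluted periplasmic extracts injected over immobilized ligand surfaces, 120 s association then 600–3600 s dissociation, running buffer containing 150 mM NaCl.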
Protocol: as §1
The molecule B1 had a koff of 0.0013 s⁻¹.
Consider B2, for which the off-rate constant (koff) turned out to be 0.0062 s⁻¹.
On the same count and under the same terms, for B3 the value was 0.0015 s⁻¹.
The same measure, in the same setting: for B4 the value was 0.00073 s⁻¹; for B5, 0.00042 s⁻¹.
On the same count and under the same terms, for B6 the value was 0.00064 s⁻¹; for B7, 0.0051 s⁻¹; for B8, 0.0029 s⁻¹.
With B9, the koff was 0.0012 s⁻¹.
On the same count and under the same terms, the figure for B10 is 0.003 s⁻¹; for B11 it is 0.00036 s⁻¹.
In turn, B12 yielded a koff of 0.0032 s⁻¹.
Molecule B13 gave a koff of 0.00049 s⁻¹. This koff is about 6.5-fold lower than that of the molecule before.
On the same count and under the same terms, for B14 the value was 0.00035 s⁻¹.
Still for that read-out and setting: the figure for B15 is 0.0051 s⁻¹; for B16 it is 0.0024 s⁻¹.
Still for that read-out and setting: the figure for B17 is 0.0024 s⁻¹.
For B18, the koff was found to be 0.0024 s⁻¹.
Still for that read-out and setting: for B19 the value was 0.0084 s⁻¹.
Same read-out and setting: for B20 the value was 0.002 s⁻¹; for B21, 0.0059 s⁻¹; for B22, 0.00071 s⁻¹.
Molecule B23 displayed a koff of 0.00097 s⁻¹. This koff and that of the molecule before are within 1.5-fold of each other.
The molecule B24 showed a koff of 0.00042 s⁻¹.

A further assay concerns the target T1, human FcRn/b2M. Description: SPR off-rate; pH 7.4 vs pH 6.0.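 Further: surface plasmon resonance with diluted periplasmic extracts flowed over ligand surfaces, 120 s association and 600–3600 s dissociation at 25 °C, running buffer containing 150 mM NaCl.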
Protocol: as §1
Turning to B1, the “kd ratio pH 7.4/6.0” value came out at 30.
The same measure, in the same setting: the figure for B2 is 50.
Same read-out and setting: for B3 the value was 43.
As to B4, the “kd ratio pH 7.4/6.0” value was 37.
For B5, the “kd ratio pH 7.4/6.0” value is 52.
Turning to B6, the “kd ratio pH 7.4/6.0” value amounted to 44.
B7: the “kd ratio pH 7.4/6.0” value is 46.
The same measure, in the same setting: the figure for B8 is 36; for B9 it is 33; for B10 it is 19.
Same read-out and setting: the figure for B11 is 45; for B12 it is 38.
Consider B13, for which the “kd ratio pH 7.4/6.0” value was found to be 45.
Regarding B14, the “kd ratio pH 7.4/6.0” value is 45.
On the same count and under the same terms, the figure for B15 is 72; for B16 it is 61.
On the same count and under the same terms, the figure for B17 is 44.
The same measure, in the same setting: the figure for B18 is 52; for B19 it is 49.
In the case of B20, the “kd ratio pH 7.4/6.0” value worked out at 35.
The same measure, in the same setting: for B21 the value was 56.
Still for that read-out and setting: for B22 the value was 39; for B23, 42; for B24, 39.

For another assay, the target named is T2, cyno FcRn/b2M. Description: SPR off-rate; pH 7.4 vs pH 6.0.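 Further: surface plasmon resonance with diluted periplasmic extracts flowed over ligand surfaces, 120 s association and 600–3600 s dissociation at 25 °C, running buffer containing 150 mM NaCl.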
Protocol: as §1
For the molecule B1, the “kd ratio pH 7.4/6.0” value turned out to be 42.
For B2, the “kd ratio pH 7.4/6.0” value is 81.
For the molecule B3, the “kd ratio pH 7.4/6.0” value was 50.
On the same count and under the same terms, the figure for B4 is 38; for B5 it is 57; for B6 it is 42.
On the same count and under the same terms, for B7 the value was 75.
Still for that read-out and setting: the figure for B8 is 55; for B9 it is 44; for B10 it is 45.
On to B11, for which the “kd ratio pH 7.4/6.0” value was 40.
On to B12, for which the “kd ratio pH 7.4/6.0” value was determined as 56.
Regarding B13, the “kd ratio pH 7.4/6.0” value is 51.
Still for that read-out and setting: the figure for B14 is 50.
On the same count and under the same terms, the figure for B15 is 84; for B16 it is 76.
The same measure, in the same setting: for B17 the value was 63; for B18, 83.
Turning to B19, the “kd ratio pH 7.4/6.0” value was 46.
On the same count and under the same terms, for B20 the value was 46; for B21, 85.
Same read-out and setting: the figure for B22 is 41.
On the same count and under the same terms, for B23 the value was 49; for B24, 46.

The next assay concerns the target T1, human FcRn/b2M. Description: SPR pH 7.4.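 Further: surface plasmon resonance kinetics, periplasmic extracts diluted 1:10 flowed over immobilized target at 25 °C, 120 s association then 600–3600 s dissociation, buffer with 150 mM NaCl.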
Protocol: as §1
The molecule B1 returned a koff of 0.045 s⁻¹.
Still for that read-out and setting: for B2 the value was 0.5 s⁻¹.
On the same count and under the same terms, for B3 the value was 0.09 s⁻¹; for B4, 0.033 s⁻¹; for B5, 0.036 s⁻¹.
Still for that read-out and setting: for B6 the value was 0.034 s⁻¹; for B7, 0.42 s⁻¹; for B8, 0.14 s⁻¹.
Regarding B9, the koff came out at 0.053 s⁻¹.
Same read-out and setting: for B10 the value was 0.14 s⁻¹; for B11, 0.021 s⁻¹; for B12, 0.14 s⁻¹.
Same read-out and setting: the figure for B13 is 0.032 s⁻¹; for B14 it is 0.024 s⁻¹; for B15 it is 0.46 s⁻¹.
Same read-out and setting: the figure for B16 is 0.5 s⁻¹; for B17 it is 0.16 s⁻¹; for B18 it is 0.16 s⁻¹.
On to B19, for which the koff was found to be 0.61 s⁻¹.
On the same count and under the same terms, for B20 the value was 0.091 s⁻¹; for B21, 0.5 s⁻¹; for B22, 0.041 s⁻¹.
Still for that read-out and setting: the figure for B23 is 0.067 s⁻¹; for B24 it is 0.026 s⁻¹.

In another assay the target is T2, cyno FcRn/b2M. Put plainly: SPR pH 7.4.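 Further: surface plasmon resonance kinetics, periplasmic extracts diluted 1:10 flowed over immobilized target at 25 °C, 120 s association then 600–3600 s dissociation, buffer with 150 mM NaCl.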
Protocol: as §1
The molecule B1 returned a koff of 0.054 s⁻¹.
Same read-out and setting: for B2 the value was 0.5 s⁻¹.
Still for that read-out and setting: for B3 the value was 0.075 s⁻¹.
The same measure, in the same setting: the figure for B4 is 0.028 s⁻¹; for B5 it is 0.024 s⁻¹.
With B6, the koff amounted to 0.027 s⁻¹.
On the same count and under the same terms, the figure for B7 is 0.38 s⁻¹; for B8 it is 0.16 s⁻¹; for B9 it is 0.053 s⁻¹.
Same read-out and setting: for B10 the value was 0.13 s⁻¹.
Take B11: the koff is 0.014 s⁻¹.
The same measure, in the same setting: the figure for B12 is 0.18 s⁻¹; for B13 it is 0.025 s⁻¹; for B14 it is 0.017 s⁻¹.
The same measure, in the same setting: for B15 the value was 0.43 s⁻¹; for B16, 0.18 s⁻¹.
The same measure, in the same setting: the figure for B17 is 0.15 s⁻¹.
For the molecule B18, the koff was found to be 0.2 s⁻¹. This koff and that of the molecule before are within 1.5-fold of each other.
The same measure, in the same setting: the figure for B19 is 0.39 s⁻¹; for B20 it is 0.092 s⁻¹.
On the same count and under the same terms, the figure for B21 is 0.5 s⁻¹.
Same read-out and setting: for B22 the value was 0.029 s⁻¹; for B23, 0.047 s⁻¹.
For the molecule B24, the koff worked out at 0.019 s⁻¹.
